Reference: publication PMC10487437 (International Journal of Molecular Sciences, 2023)
One block for each molecule: values may come before it. Primed or numbered codes have the meaning given here. * marks the point of attachment. Dabcyl′ = CN(C)c1ccc(/N=N/c2ccc(C(=O)*)cc2)cc1; EDANS = O=S(=O)(O)c1cccc2c(NCCN*)cccc12

What was measured:
[1] = target: 26S proteasome (mouse (endogenous in brain)) (UniProt Q60692)
[2] = target: 20S proteasome (mouse (endogenous in brain)) (UniProt Q60692)
Chain of 20S proteasome (mouse (endogenous in brain)) (Q60692 whole entry, looked up): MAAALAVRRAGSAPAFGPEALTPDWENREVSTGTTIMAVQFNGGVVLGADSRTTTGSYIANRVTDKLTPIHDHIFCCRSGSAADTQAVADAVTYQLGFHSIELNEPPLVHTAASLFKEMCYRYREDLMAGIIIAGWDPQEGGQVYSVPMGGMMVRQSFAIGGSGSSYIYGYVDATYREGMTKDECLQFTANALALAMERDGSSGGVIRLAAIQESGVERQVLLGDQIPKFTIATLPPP

Chain of 26S proteasome (mouse (endogenous in brain)) (Q60692 whole entry, looked up): as above

Vmax (+11S)/Vmax of hydrolysis of Dabcyl-KQ5GD-EDANS by the 26S proteasome, proteasome:11S 1:4 [1]: 1
Vmax (+11S)/Vmax of hydrolysis of Dabcyl-KQ10GD-EDANS by the 26S proteasome, proteasome:11S 1:4 [1]: 1.4
Vmax (+11S)/Vmax of hydrolysis of Dabcyl-KQ10PPD-EDANS by the 26S proteasome, proteasome:11S 1:4 [1]: 2
Vmax (+11S)/Vmax of hydrolysis of Dabcyl-KQ5GD-EDANS by the 20S proteasome, proteasome:11S 1:4 [2]: 2.7
Vmax (+11S)/Vmax of hydrolysis of Dabcyl-KQ10GD-EDANS by the 20S proteasome, proteasome:11S 1:4 [2]: 1.5
Vmax (+11S)/Vmax of hydrolysis of Dabcyl-KQ10PPD-EDANS by the 20S proteasome, proteasome:11S 1:4 [2]: 2.3
Molecule: 11S regulator (PA28αβ) (from UniProt P97371 1-249; P97372 1-239) (complex)

apparent Km of hydrolysis by 26S+11S (proteasome:11S 1:4) [1]: 20 µM
apparent Km of hydrolysis by the 26S proteasome [1]: 24.5 µM
apparent Km of hydrolysis by 20S+11S (proteasome:11S 1:4) [2]: 5.3 µM
apparent Km of hydrolysis by the 20S proteasome [2]: 8.2 µM
B1: Dabcyl-KQ10PPD-EDANS (peptide)
peptide: {Dabcyl′}-KQQQQQQQQQQPPD-{EDANS}
SMILES: CN(C)c1ccc(/N=N/c2ccc(C(=O)N[C@@H](CCCCN)C(=O)N[C@@H](CCC(N)=O)C(=O)N[C@@H](CCC(N)=O)C(=O)N[C@@H](CCC(N)=O)C(=O)N[C@@H](CCC(N)=O)C(=O)N[C@@H](CCC(N)=O)C(=O)N[C@@H](CCC(N)=O)C(=O)N[C@@H](CCC(N)=O)C(=O)N[C@@H](CCC(N)=O)C(=O)N[C@@H](CCC(N)=O)C(=O)N[C@@H](CCC(N)=O)C(=O)N3CCC[C@H]3C(=O)N3CCC[C@H]3C(=O)N[C@@H](CC(=O)O)C(=O)NCCNc3cccc4c(S(=O)(=O)O)cccc34)cc2)cc1

apparent Km of hydrolysis by 26S+11S (proteasome:11S 1:4) [1]: 38 µM
apparent Km of hydrolysis by the 26S proteasome [1]: 18 µM
apparent Km of hydrolysis by 20S+11S (proteasome:11S 1:4) [2]: 64 µM
apparent Km of hydrolysis by the 20S proteasome [2]: 40 µM
B2: Dabcyl-KQ10GD-EDANS (peptide)
peptide: {Dabcyl′}-KQQQQQQQQQQGD-{EDANS}
SMILES: CN(C)c1ccc(/N=N/c2ccc(C(=O)N[C@@H](CCCCN)C(=O)N[C@@H](CCC(N)=O)C(=O)N[C@@H](CCC(N)=O)C(=O)N[C@@H](CCC(N)=O)C(=O)N[C@@H](CCC(N)=O)C(=O)N[C@@H](CCC(N)=O)C(=O)N[C@@H](CCC(N)=O)C(=O)N[C@@H](CCC(N)=O)C(=O)N[C@@H](CCC(N)=O)C(=O)N[C@@H](CCC(N)=O)C(=O)N[C@@H](CCC(N)=O)C(=O)NCC(=O)N[C@@H](CC(=O)O)C(=O)NCCNc3cccc4c(S(=O)(=O)O)cccc34)cc2)cc1

apparent Km of hydrolysis by 26S+11S (proteasome:11S 1:4) [1]: 52 µM
apparent Km of hydrolysis by the 26S proteasome [1]: 54 µM
apparent Km of hydrolysis by 20S+11S (proteasome:11S 1:4) [2]: 60 µM
apparent Km of hydrolysis by the 20S proteasome [2]: 52 µM
B3: Dabcyl-KQ5GD-EDANS (peptide)
peptide: {Dabcyl′}-KQQQQQGD-{EDANS}
SMILES: CN(C)c1ccc(/N=N/c2ccc(C(=O)N[C@@H](CCCCN)C(=O)N[C@@H](CCC(N)=O)C(=O)N[C@@H](CCC(N)=O)C(=O)N[C@@H](CCC(N)=O)C(=O)N[C@@H](CCC(N)=O)C(=O)N[C@@H](CCC(N)=O)C(=O)NCC(=O)N[C@@H](CC(=O)O)C(=O)NCCNc3cccc4c(S(=O)(=O)O)cccc34)cc2)cc1
